Experimental data reported in article PMC11186766.

Assays:
[1] = molecular target: succinylated concanavalin A; test: cryo-EM structure; time-resolved cryo-EM: purified GluK2 at 60 uM incubated with 500 uM BPAM344 for 20-30 min on ice, 90 uM succinylated concanavalin A added, 10 mM L-glutamate applied less than 3 s before plunge-freezing; 150 mM NaCl, 20 mM Tris-HCl pH 8.0, 0.05% digitonin
[2] = molecular target: full-length rat GluK2 kainate receptor (rat) (UniProt P42260); test: as above

stoichiometry N [1] | stoichiometry N [2] | Substance
2 | – | succinylated concanavalin A (natural protein)
– | 4 | full-length rat GluK2 kainate receptor (from UniProt P42260 32-908)
